# In paper PMC7940618, “Specific inhibition of the Survivin–CRM1 interaction by peptide-modified molecular tweezers” (Nature Communications, 2021):
# Peptide text beside a SMILES is read from it. * marks the point of attachment. X1 = O=C(Cn1cc(CCOP(=O)(O)Oc2c3c(c(OP(=O)(O)O)c4c2C2CC4c4cc5c(cc42)C2CC5c4ccccc42)C2CC3c3cc4c(cc32)C2CC4c3ccccc32)nn1)*; 5FAM = O=C1OC2(c3ccc(O)cc3Oc3cc(O)ccc32)c2ccc(C(=O)*)cc21
# Key:
# Survivin120 wildtype = molecular target: T1, Survivin120 wildtype (Homo sapiens, UniProt O15392); experiment: Fluorescence anisotropy binding of FAM-labeled tweezers to Survivin120 wildtype
# T1 construct: the only published NMR structure originated from a truncated Survivin (aa 1-120) with improved solubility; GST with PreScission site (N); made in house; host or cells: Escherichia coli soluBL21
# T1 sequence (O15392 1-120): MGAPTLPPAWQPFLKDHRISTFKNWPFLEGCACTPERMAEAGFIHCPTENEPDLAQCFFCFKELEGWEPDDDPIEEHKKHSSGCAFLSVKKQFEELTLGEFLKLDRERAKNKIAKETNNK
# Procedure: (§1) Fluorescence anisotropy was measured with a Jasco Spectrofluorometer FP-8300 in PBS buffer, pH 7.4, at 25 °C and data were collected with the software Spectra Manager™.
# (§2) For binding studies, FAM-labeled molecular tweezers (200 nM) were titrated with Survivin120 wildtype or K90/103T mutant until a final concentration of 180 µM (wildtype) or 350 µM (K90/103T) was reached. Data were normalized to the measured anisotropy A0 in the absence of protein. Using a single-site binding model, the fluorescence anisotropy data were fitted to the equation:3 y=A⋅L+x+KD−L+x+KD^2−4⋅x⋅L/2⋅L where A is the anisotropy at saturation, L is the concentration of the fluorescent ligand, x is the concentration of protein titrated, and KD is the dissociation constant.
# Survivin120 K90/103T = molecular target: T2, Survivin120 K90/103T (Homo sapiens, UniProt O15392, K103T/K90T); experiment: Fluorescence anisotropy binding of FAM-labeled tweezers to Survivin120 K90/103T
# T2 construct: the only published NMR structure originated from a truncated Survivin (aa 1-120) with improved solubility; GST with PreScission site (N); made in house; host or cells: Escherichia coli soluBL21
# T2 sequence (O15392 1-120 K90T/K103T): as the sequence (O15392 1-120) above, with K90T, K103T counted along it
# Procedure: as §1, §2
# [1] = molecular target: TW-ELTLGEFL (asymmetrical molecular tweezer linked to the elongated peptide ELTLGEFL) (human); experiment: ITC; tweezer conjugate (100 µM) in the cell, Survivin120 (1.2 mM WT or 2.5 mM K90/103T) in the syringe; PBS pH 7.4, 25 °C; one set of sites model
# [2] = molecular target: TW-ELTL (asymmetrical molecular tweezer linked to the short peptide ELTL) (human); experiment: as above
# [3] = molecular target: TW-LFEEGLLT (scrambled peptide-modified tweezer); experiment: as above
# TW-ELTLGEFL-FAM (human) = experiment: fluorescence polarisation; fluorescence anisotropy; 200 nM FAM-labeled tweezer titrated with Survivin120 (to 180 µM) or K90/103T (to 350 µM); PBS pH 7.4, 25 °C; single-site model
# TW-ELTL-FAM (human) = experiment: as above
# [4] = molecular target: Atto488-labeled Survivin120 (human) (UniProt O15392); experiment: fluorescence polarisation; fluorescence anisotropy competition; Atto488-Survivin120 preincubated with CRM1_1-1062VLV430AAA at 1:5, titrated with tweezers to approx. 180 µM; PBS pH 7.4, 25 °C; n = 1
# Atto488-labeled Survivin120 (human), sequence (O15392 1-120): as the sequence (O15392 1-120) above
# Survivin142-HA (human) = Survivin142-HA (human) (UniProt O15392); experiment: pull-down; competition in the pull-down of a5: 293T lysate with Survivin142-HA preincubated 1 h with 10 nM to 200 µM tweezer conjugate before GST-CRM1, RanQ69L and dGTP
# Survivin142-HA (human), sequence (O15392 whole entry): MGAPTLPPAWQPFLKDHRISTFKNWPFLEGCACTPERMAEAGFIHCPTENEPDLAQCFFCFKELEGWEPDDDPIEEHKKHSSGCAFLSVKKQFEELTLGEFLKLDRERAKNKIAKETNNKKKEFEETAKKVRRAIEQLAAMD
molecule,measurement,setting,value
CC(C)C[C@H](NC(=O)[C@H](CCC(=O)O)NC(=O)Cn1cc(CCOP(=O)(O)Oc2c3c(c(OP(=O)(O)O)c4c2[C@H]2C[C@@H]4c4cc5c(cc42)[C@H]2C[C@@H]5c4ccccc42)[C@H]2C[C@@H]3c3cc4c(cc32)[C@H]2C[C@@H]4c3ccccc32)nn1)C(=O)N[C@H](C(=O)N[C@@H](CC(C)C)C(=O)N[C@@H](CCCCNC(=O)c1ccc2c(c1)C(=O)OC21c2ccc(O)cc2Oc2cc(O)ccc21)C(=O)NCC(=O)O)[C@@H](C)O [TW-ELTL-FAM],Kd,Survivin120 wildtype,26 ± 2 µM
same,Kd,Survivin120 K90/103T,240 ± 20 µM
CC(C)C[C@H](NC(=O)[C@H](Cc1ccccc1)NC(=O)[C@H](CCC(=O)O)NC(=O)CNC(=O)[C@H](CC(C)C)NC(=O)[C@@H](NC(=O)[C@H](CC(C)C)NC(=O)[C@H](CCC(=O)O)NC(=O)Cn1cc(CCOP(=O)(O)Oc2c3c(c(OP(=O)(O)O)c4c2C2CC4c4cc5c(cc42)C2CC5c4ccccc42)C2CC3c3cc4c(cc32)C2CC4c3ccccc32)nn1)[C@@H](C)O)C(=O)N[C@@H](CCCCNC(=O)c1ccc2c(c1)C(=O)OC21c2ccc(O)cc2Oc2cc(O)ccc21)C(=O)NCC(=O)O [TW-ELTLGEFL-FAM] (X1-ELTLGEFLK(5FAM)G-OH),Kd,Survivin120 wildtype,5 ± 0.5 µM
same,Kd,Survivin120 K90/103T,92 ± 5 µM
"Survivin120 (truncated Survivin, aa 1-120) (from UniProt O15392 1-120) (domain or fragment)",Kd,[1],19 µM
same,stoichiometry N (ligand/protein),[1],2
same,Kd,[2],24 µM
same,stoichiometry N (ligand/protein),[2],2
same,Kd,[3],68 µM
same,Kd,TW-ELTLGEFL-FAM (human),5 µM
same,Kd,TW-ELTL-FAM (human),26 µM
TW-ELTLGEFL (asymmetrical molecular tweezer linked to the elongated peptide ELTLGEFL),IC50,[4],12 µM
same,concentration effective in disrupting the Survivin–CRM1 complex,Survivin142-HA (human),1 to 10 µM
